Test results reported in US20200157212A1 (Pfizer, published 2020).

Key:
[1] = target: T1, Terbium (Tb) labeled-SNAP tagged ROBO2 expressed on HEK293 cells (Homo sapiens (Human), UniProt Q9HCK4 22-1378, terbium label on the SNAP tag); assay: HTRF competition, competitor d2-SLIT2-N, ROBO2 HEK293 cells
T1 construct: also called Tb-labeled ROBO2 cells; ROBO2 expressing cells; not shown: SNAP tag
T1 sequence: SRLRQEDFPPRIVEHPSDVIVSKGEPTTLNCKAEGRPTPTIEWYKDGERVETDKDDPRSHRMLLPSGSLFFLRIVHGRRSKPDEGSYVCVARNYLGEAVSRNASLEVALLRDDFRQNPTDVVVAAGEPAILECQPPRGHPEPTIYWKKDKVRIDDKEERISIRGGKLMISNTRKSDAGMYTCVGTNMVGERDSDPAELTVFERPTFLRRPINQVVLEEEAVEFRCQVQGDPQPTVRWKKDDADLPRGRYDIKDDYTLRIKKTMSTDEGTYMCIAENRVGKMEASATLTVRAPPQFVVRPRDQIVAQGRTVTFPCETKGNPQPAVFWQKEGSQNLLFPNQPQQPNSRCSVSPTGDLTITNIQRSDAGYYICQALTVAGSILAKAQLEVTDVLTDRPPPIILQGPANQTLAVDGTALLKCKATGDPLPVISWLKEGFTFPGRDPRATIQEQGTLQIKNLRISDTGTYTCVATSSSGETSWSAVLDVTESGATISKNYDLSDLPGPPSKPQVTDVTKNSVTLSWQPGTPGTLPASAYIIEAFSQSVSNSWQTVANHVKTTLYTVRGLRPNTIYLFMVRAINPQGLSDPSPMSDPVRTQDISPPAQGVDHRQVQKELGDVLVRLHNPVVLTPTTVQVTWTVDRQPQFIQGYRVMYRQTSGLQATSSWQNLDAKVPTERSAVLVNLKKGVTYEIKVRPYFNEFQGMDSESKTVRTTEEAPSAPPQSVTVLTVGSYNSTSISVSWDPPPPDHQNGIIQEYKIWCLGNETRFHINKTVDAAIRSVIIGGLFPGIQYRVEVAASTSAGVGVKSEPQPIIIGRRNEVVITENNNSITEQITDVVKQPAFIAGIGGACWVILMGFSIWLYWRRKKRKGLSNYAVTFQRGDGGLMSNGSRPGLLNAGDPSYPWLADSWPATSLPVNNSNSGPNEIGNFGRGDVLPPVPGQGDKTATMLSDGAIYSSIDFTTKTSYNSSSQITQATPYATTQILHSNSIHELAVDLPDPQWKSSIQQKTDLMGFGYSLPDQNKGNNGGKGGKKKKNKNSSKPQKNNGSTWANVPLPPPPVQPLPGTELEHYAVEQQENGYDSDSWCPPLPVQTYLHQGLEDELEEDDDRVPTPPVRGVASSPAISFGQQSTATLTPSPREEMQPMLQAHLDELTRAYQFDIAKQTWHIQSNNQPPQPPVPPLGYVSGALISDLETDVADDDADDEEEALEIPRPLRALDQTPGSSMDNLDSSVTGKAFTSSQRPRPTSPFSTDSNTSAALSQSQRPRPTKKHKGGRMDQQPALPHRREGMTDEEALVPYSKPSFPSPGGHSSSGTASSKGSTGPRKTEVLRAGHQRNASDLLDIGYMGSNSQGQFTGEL
Summary of the method: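 HEK293 cells expressing Tb-labeled SNAP-ROBO2 were incubated 1 hour with 5 nM d2-SLIT2-N plus antibody, read as the 665/620 nm HTRF ratio. Controls were no antibody (maximal) and cells alone (minimal). Screening used 1 nM antibody; IC₅₀ came from 11-point, 5-fold dilutions starting at 1500 nM.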

[2] = target: T1, Terbium (Tb) labeled-SNAP tagged ROBO2 …; assay: HTRF, 5 nM d2-SLIT2-N on Tb-SNAP-ROBO2 HEK293 cells, 1 nM antibody
Summary of the method: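 Tb-SNAP-ROBO2 HEK293 cells incubated 1 hour with 5 nM d2-SLIT2-N, with 1 nM anti-ROBO2 antibody or none (maximal signal); cells alone gave minimum. HTRF read at 665/620 nm; IC50 series used 11-point, 5-fold dilutions from 1500 nM.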

Row | Binder | IC50 [1] | HTRF Ratio [2]
1 | 93H2 (antibody, human IgG1, kappa, V domains shown, also called parental 93H2; 93H2 mAb) VH: EVQLVQSGAEVKKPGASVKVSCKASGYTFTGYYMHWVRQAPGQGLEWMGWINPNSGATNFPQKFQGRVTMTRDTSITTAYMDLSRLRSDDTAVYYCARESGDDAFDIWGQGTMVTVSS VL: not shown | 4.22 nM | 13800
2 | Abcs20 (antibody, human IgG1, kappa, V domains shown, chain-shuffled IgG) VH: EVQLVQSGAEVKKPGASVKVSCKASGYTFTGYYMHWVRQAPGQGLEWMGWINPKNGDTEFPQKFQGRVTMTRDTSITTAYMDLSRLRSDDTAVYYCARESGDDAFDIWGQGTMVTVSS VL: DIVMTQSPSSLSASVGDRVTITCRASQSISSYLNWYQQKPGKAPKLLIYAASSLQSGVPSRFSGSGSGTDFTLTISSLQPEDFATYYCQQSVGLSFGGGTKVEIKR | 0.04 nM | 3970
3 | Abcs25 (antibody, human IgG1, kappa, V domains shown, chain-shuffled IgG) VH: EVQLVQSGAEVKKPGASVKVSCKASGYTFTGYYMHWVRQAPGQGLEWMGWINPKDGDTEFPQKFQGRVTMTRDTSITTAYMDLSRLRSDDTAVYYCARESGDDAFDIWGQGTMVTVSS VL: DIVMTQSPSSLSASVGDRVTITCRASQSISSYLNWYQQKPGKAPKLLIYAASSLQSGVPSRFSGSGSGTDFTLTISSLQPEDFATYYCQQSVGLSFGGGTKVEIKR | 0.042 nM | 3880
4 | Abcs35 (antibody, human IgG1, kappa, fully human IgG1; VH of Ab96 with VL of Ab123) heavy: EVQLVQSGAEVKKPGASVKVSCKASGYTFTGYYMHWVRQAPGQGLEWMGWINPKNGDTEFPQKFQGRVTMTRDTSITTAYMDLSRLRSDDTAVYYCARESGDDAFDIWGQGTMVTVSSASTKGPSVFPLAPSSKSTSGGTAALGCLVKDYFPEPVTVSWNSGALTSGVHTFPAVLQSSGLYSLSSVVTVPSSSLGTQTYICNVNHKPSNTKVDKKVEPKSCDKTHTCPPCPAPEAAGAPSVFLFPPKPKDTLMISRTPEVTCVVVDVSHEDPEVKFNWYVDGVEVHNAKTKPREEQYNSTYRVVSVLTVLHQDWLNGKEYKCKVSNKALPAPIEKTISKAKGQPREPQVYTLPPSREEMTKNQVSLTCLVKGFYPSDIAVEWESNGQPENNYKTTPPVLDSDGSFFLYSKLTVDKSRWQQGNVFSCSVMHEALHNHYTQKSLSLSPGK light: DIVMTQSPSSLSASVGDRVTITCRASQSISSYLNWYQQKPGKAPKLLIYAASSLQSGVPSRFSGSGSGTDFTLTISSLQPEDFATYYCQQSVGLFFGGGTKVEIKRTVAAPSVFIFPPSDEQLKSGTASVVCLLNNFYPREAKVQWKVDNALQSGNSQESVTEQDSKDSTYSLSSTLTLSKADYEKHKVYACEVTHQGLSSPVTKSFNRGEC | 0.041 nM | 3940
5 | Abcs40 (antibody, human IgG1, kappa, V domains shown, chain-shuffled IgG) VH: EVQLVQSGAEVKKPGASVKVSCKASGYTFTGYYMHWVRQAPGQGLEWMGWINPKDGDTEFPQKFQGRVTMTRDTSITTAYMDLSRLRSDDTAVYYCARESGDDAFDIWGQGTMVTVSS VL: DIVMTQSPSSLSASVGDRVTITCRASQSISSYLNWYQQKPGKAPKLLIYAASSLQSGVPSRFSGSGSGTDFTLTISSLQPEDFATYYCQQSVGLFFGGGTKVEIKR | 0.048 nM | 3390

Results, then the binder that gave them:

Row | IC50 [1] | HTRF Ratio [2] | Binder
6 | 0.05 nM | 3750 | CTIR2-15 (antibody, human IgG1, kappa, V domains shown, CDR-shuffled IgG) VH: EVQLVQSGAEVKKPGASVKVSCKASGYTFRGYAMHWVRQAPGQGLEWMGWIDPRTGLTKFPQKFQGRVTMTRDTSITTAYMDLSRLRSDDTAVYYCARESGDDAFDIWGQGTMVTVSS VL: DIVMTQSPSSLSASVGDRVTITCRASQKISSYLNWYQQKPGKAPKLLIYAASSLQYGVPSRFSGSGSGTDFTLTISSLQPEDFATYYCQQSVGLSFGGGTKVEIKR
7 | 0.056 nM | 3730 | CTIR2-16 (antibody, human IgG1, kappa, V domains shown, CDR-shuffled IgG) VH: EVQLVQSGAEVKKPGASVKVSCKASGYTFRGYAMHWVRQAPGQGLEWMGWIDPRTGLTKFPQKFQGRVTMTRDTSITTAYMDLSRLRSDDTAVYYCARESGDDAFDIWGQGTMVTVSS VL: DIVMTQSPSSLSASVGDRVTITCRASQKISSYLNWYQQKPGKAPKLLIYAASSLQYGVPSRFSGSGSGTDFTLTISSLQPEDFATYYCQQSVGLFFGGGTKVEIKR
8 | 0.057 nM | 3050 | Abcs55 (antibody, human IgG1, kappa, V domains shown, chain-shuffled IgG) VH: EVQLVQSGAEVKKPGASVKVSCKASGYTFTGYYMHWVRQAPGQGLEWMGWINPKDGDTEFPQKFQGRVTMTRDTSITTAYMDLSRLRSDDTAVYYCARESGDDAFDIWGQGTMVTVSS VL: DIVMTQSPSSLSASVGDRVTITCRASQSISSYLNWYQQKPGKAPKLLIYAASSLQYGVPSRFSGSGSGTDFTLTISSLQPEDFATYYCQQSYSTSFGGGTKVEIKR
9 | 0.037 nM | 3710 | CTIR2-14 (antibody, human IgG1, kappa, V domains shown, CDR-shuffled IgG) VH: EVQLVQSGAEVKKPGASVKVSCKASGYTFRGYAMHWVRQAPGQGLEWMGWIDPRTGLTKFPQKFQGRVTMTRDTSITTAYMDLSRLRSDDTAVYYCARESGDDAFDIWGQGTMVTVSS VL: DIVMTQSPSSLSASVGDRVTITCRASQKISSYLNWYQQKPGKAPKLLIYAASSLQYGVPSRFSGSGSGTDFTLTISSLQPEDFATYYCQQSLELGFGGGTKVEIKR
